The RNAGym collection of RNA variant scans (doi:10.7554/elife.80360)

B1: CPEB3 Ribozyme (parent)
chain: GGGGGCCACAGCAGAAGCGUUCACGUCGCGGCCCCUGUCAGAUUCUGGUGAAUCUGCGAAUUCUGCUGU

Variants of: B1
Assay: self-cleavage, relative activity (ratio to wild type); higher = more cleavage; co-transcriptional

Variant | self-cleavage
GGGGUCCACAGCAGAAGCGUUCACGUCGCGGCCCCUGUCAGAUUCUGGUGCAUCUGCGAAUUCUGCUGU | 0.187
GGGGUCCACAGUAGAAGCGUUCACGUCGCGGCCCCUGUCAGAUUCUGGUGAAUCUGCGAAUUCUGCUGU | 0.188
GGGGUCCACAGCAGAAGCGUUGACGUCGCGGCCCCUGUCAGAUUCUGGUGAAUCUGCGAAUUCUGCUGU | 0.09
GGGGCCCACAGCAGAAGCGUUCACGUCGCGGCCCCUGUCAGAUUCUGGUGAAUCUGCGAAUUCAGCUGU | 0.246
GGGGCCCACAGCAGAAGCGUUCACGUCGCGGCCCCUGUCAGAUUCUGGUGAAUCUGCGAAUUCGGCUGU | 0.105
GGGGCCCACAGCAGAAGCGUUCACGUCGCGGCCCCUGUCAGAUUCUGGUGAAUCUGCGAAUUCCGCUGU | 0.262
GGGGCCCACAGCAGAAGCGUUCACGUCGCGGCCCCUGUCAGAUUCUGGUGAAUCUGCGAAUUCUGCGGU | 0.355
GGGGCCCACAGCAGAAGCGUUCACGUCGCGGCCCCUGUCAGAUUCUGGUGAAUCUGCGAAUUCUGCAGU | 0.338
GGGGCCCACAGCAGAAGCGUUCACGUCGCGGCCCCUGUCAGAUUCUGGUGAAUCUGCGAAUUCUGCCGU | 0.254
GGGGUCCACAGCAGAAGCGUUCACGUCGCGGCCCCUGUCAGAUUAUGGUGAAUCUGCGAAUUCUGCUGU | 0.208
GGGGUCCACAGCAGAAGCGUUCACGUCGCGGCCCCUGUCAGAUUUUGGUGAAUCUGCGAAUUCUGCUGU | 0.291
GGGGUCCACAGCAGAAGCGUUCACGUCGCGGCCCCUGUCAGAUUCUGGUGAAUCUGCGAAUUCUGGUGU | 0.133
GGGGUCCACAGCAGAAGCGUUCACGUCGCGGCCCCUGUCAGAUUCUGGUGAAUCUGCGAAUUCUGUUGU | 0.299
GGGGUCCACAGCAGAAGCGUUCACGUCGCGGCCCCUGUCAGAUUCUGGUGAAUCUGCGAAUUCUGAUGU | 0.19
GGGGUCCGCAGCAGAAGCGUUCACGUCGCGGCCCCUGUCAGAUUCUGGUGAAUCUGCGAAUUCUGCUGU | 0.228
GGGGUCCCCAGCAGAAGCGUUCACGUCGCGGCCCCUGUCAGAUUCUGGUGAAUCUGCGAAUUCUGCUGU | 0.346
GGGGUCCACAGCAGAAGCGUUCACGUCGCGGCCCCUGUCAGAUUCUGGUGAAUCUGCGAUUUCUGCUGU | 0.149
GGGGUCCACAGCAGAAGCGUUCACGUCGCGGCCCCUGUCAGAUUCUGGUGAAUCUGCGAGUUCUGCUGU | 0.0935
GGGGUCCACAGCAGAAGCGUUCACGUCGCGGCCCCUGUCAGAUUCUGGUGAAUCUGCGACUUCUGCUGU | 0.0763
GGGGCCCACAGCAGAAGCGUUCACGUCGCGGCCCCUGUCAGAUUCUGGUGAAUCUGCGAAAUCUGCUGU | 0.193

Variant | self-cleavage
GGGGCCCACAGCAGAAGCGUUCACGUCGCGGCCCCUGUCAGAUUCUGGUGAAUCUGCGAACUCUGCUGU | 0.13
GGGGCCCACAGCAGAAGCGUUCACGUCGCGGCCCCUGUCAGAUUCUGGUGAAUCUGCGAAGUCUGCUGU | 0.153
GGGGUUCACAGCAGAAGCGUUCACGUCGCGGCCCCUGUCAGAUUCUGGUGAAUCUGCGAAUUCUGCUGU | 0.111
GGGGUCCACAGCAGAAGCGUUCCCGUCGCGGCCCCUGUCAGAUUCUGGUGAAUCUGCGAAUUCUGCUGU | 0.211
GGGGUCCACAGCAGAAGCGUUCUCGUCGCGGCCCCUGUCAGAUUCUGGUGAAUCUGCGAAUUCUGCUGU | 0.402
GGGGUCCACAGCAGAAGCGUUCGCGUCGCGGCCCCUGUCAGAUUCUGGUGAAUCUGCGAAUUCUGCUGU | 0.253
GGGGUCAACAGCAGAAGCGUUCACGUCGCGGCCCCUGUCAGAUUCUGGUGAAUCUGCGAAUUCUGCUGU | 0.086
GGGGUCGACAGCAGAAGCGUUCACGUCGCGGCCCCUGUCAGAUUCUGGUGAAUCUGCGAAUUCUGCUGU | 0.0615
GGGGUCUACAGCAGAAGCGUUCACGUCGCGGCCCCUGUCAGAUUCUGGUGAAUCUGCGAAUUCUGCUGU | 0.0819
GGGGUCCACAGCUGAAGCGUUCACGUCGCGGCCCCUGUCAGAUUCUGGUGAAUCUGCGAAUUCUGCUGU | 0.139
GGGGUCCACAGCGGAAGCGUUCACGUCGCGGCCCCUGUCAGAUUCUGGUGAAUCUGCGAAUUCUGCUGU | 0.271
GGGGUCCACAGCAGAAGCGUUCACGUCGCGGACCCUGUCAGAUUCUGGUGAAUCUGCGAAUUCUGCUGU | 0.953
GGGGUCCACAGCAGAAGCGUUCACGUCGCGGGCCCUGUCAGAUUCUGGUGAAUCUGCGAAUUCUGCUGU | 0.815
GGGGUCCACAGCAGAAGCGUUCACGUCGCGGUCCCUGUCAGAUUCUGGUGAAUCUGCGAAUUCUGCUGU | 0.568
GGGGUCCACAGCAGAAGCGUUCACGUCGCGGCCCCUGUCAGGUUCUGGUGAAUCUGCGAAUUCUGCUGU | 0.343
GGGGUCCACAGCAGAAGCGUUCACGUCGCGGCCCCUGUCAGCUUCUGGUGAAUCUGCGAAUUCUGCUGU | 0.0793
GGGGUCCACAGCAGAAGCGUUCACGUCGCGGCCCCUGUCAGUUUCUGGUGAAUCUGCGAAUUCUGCUGU | 0.118
GGGGCCCACAGCAGAAGCGUUCACGUCGCGGCCCCUGUCAGAUCCUGGUGAAUCUGCGAAUUCUGCUGU | 0.179
GGGGUCCACAGCAGAAGCGUUCACGUCGCGGCCCCUGUCCGAUUCUGGUGAAUCUGCGAAUUCUGCUGU | 0.088
